B1: H183/L072 VH T100bL (antibody, name in Kabat numbering, V domains shown)
VH: QVQLVESGGGLVQPGRSLRLSCAASGFTFSNAWMHWVRQAPGKGLEWVAQIKDKGNAYAAYYAPSVKGRFTISRDDSKNSIYLQMNSLKTEDTAVYYCHYVHYASASLVLPAFGVDAWGQGTTVTVSS
VL: DIVMTQSPLSLPVTPGEPASISCQASQELVHMNRNTYLHWYQQKPGQAPRLLIYKVSNRFPGVPDRFSGSGSGTDFTLKISRVEAEDVGVYYCAQGTSVPFTFGQGTKLEIK
B2: H183/L072 VH V63I (antibody, name in Kabat numbering, V domains shown)
VH: QVQLVESGGGLVQPGRSLRLSCAASGFTFSNAWMHWVRQAPGKGLEWVAQIKDKGNAYAAYYAPSIKGRFTISRDDSKNSIYLQMNSLKTEDTAVYYCHYVHYASASTVLPAFGVDAWGQGTTVTVSS
VL: DIVMTQSPLSLPVTPGEPASISCQASQELVHMNRNTYLHWYQQKPGQAPRLLIYKVSNRFPGVPDRFSGSGSGTDFTLKISRVEAEDVGVYYCAQGTSVPFTFGQGTKLEIK
B3: H183/L072 VH V95A (antibody, name in Kabat numbering, V domains shown)
VH: QVQLVESGGGLVQPGRSLRLSCAASGFTFSNAWMHWVRQAPGKGLEWVAQIKDKGNAYAAYYAPSVKGRFTISRDDSKNSIYLQMNSLKTEDTAVYYCHYAHYASASTVLPAFGVDAWGQGTTVTVSS
VL: DIVMTQSPLSLPVTPGEPASISCQASQELVHMNRNTYLHWYQQKPGQAPRLLIYKVSNRFPGVPDRFSGSGSGTDFTLKISRVEAEDVGVYYCAQGTSVPFTFGQGTKLEIK
B4: H183/L072 VH V95I (antibody, name in Kabat numbering, V domains shown)
VH: QVQLVESGGGLVQPGRSLRLSCAASGFTFSNAWMHWVRQAPGKGLEWVAQIKDKGNAYAAYYAPSVKGRFTISRDDSKNSIYLQMNSLKTEDTAVYYCHYIHYASASTVLPAFGVDAWGQGTTVTVSS
VL: DIVMTQSPLSLPVTPGEPASISCQASQELVHMNRNTYLHWYQQKPGQAPRLLIYKVSNRFPGVPDRFSGSGSGTDFTLKISRVEAEDVGVYYCAQGTSVPFTFGQGTKLEIK
B5: H183/L072 VH V100cI (antibody, name in Kabat numbering, V domains shown)
VH: QVQLVESGGGLVQPGRSLRLSCAASGFTFSNAWMHWVRQAPGKGLEWVAQIKDKGNAYAAYYAPSVKGRFTISRDDSKNSIYLQMNSLKTEDTAVYYCHYVHYASASTILPAFGVDAWGQGTTVTVSS
VL: DIVMTQSPLSLPVTPGEPASISCQASQELVHMNRNTYLHWYQQKPGQAPRLLIYKVSNRFPGVPDRFSGSGSGTDFTLKISRVEAEDVGVYYCAQGTSVPFTFGQGTKLEIK
B6: H183/L072 VH T100bM (antibody, name in Kabat numbering, V domains shown)
VH: QVQLVESGGGLVQPGRSLRLSCAASGFTFSNAWMHWVRQAPGKGLEWVAQIKDKGNAYAAYYAPSVKGRFTISRDDSKNSIYLQMNSLKTEDTAVYYCHYVHYASASMVLPAFGVDAWGQGTTVTVSS
VL: DIVMTQSPLSLPVTPGEPASISCQASQELVHMNRNTYLHWYQQKPGQAPRLLIYKVSNRFPGVPDRFSGSGSGTDFTLKISRVEAEDVGVYYCAQGTSVPFTFGQGTKLEIK
B7: H183/L072 VH V100cM (antibody, name in Kabat numbering, V domains shown)
VH: QVQLVESGGGLVQPGRSLRLSCAASGFTFSNAWMHWVRQAPGKGLEWVAQIKDKGNAYAAYYAPSVKGRFTISRDDSKNSIYLQMNSLKTEDTAVYYCHYVHYASASTMLPAFGVDAWGQGTTVTVSS
VL: DIVMTQSPLSLPVTPGEPASISCQASQELVHMNRNTYLHWYQQKPGQAPRLLIYKVSNRFPGVPDRFSGSGSGTDFTLKISRVEAEDVGVYYCAQGTSVPFTFGQGTKLEIK
B8: H183/L072 VH V63L (antibody, name in Kabat numbering, V domains shown)
VH: QVQLVESGGGLVQPGRSLRLSCAASGFTFSNAWMHWVRQAPGKGLEWVAQIKDKGNAYAAYYAPSLKGRFTISRDDSKNSIYLQMNSLKTEDTAVYYCHYVHYASASTVLPAFGVDAWGQGTTVTVSS
VL: DIVMTQSPLSLPVTPGEPASISCQASQELVHMNRNTYLHWYQQKPGQAPRLLIYKVSNRFPGVPDRFSGSGSGTDFTLKISRVEAEDVGVYYCAQGTSVPFTFGQGTKLEIK
B9: H183/L072 VH V100iM (antibody, name in Kabat numbering, V domains shown)
VH: QVQLVESGGGLVQPGRSLRLSCAASGFTFSNAWMHWVRQAPGKGLEWVAQIKDKGNAYAAYYAPSVKGRFTISRDDSKNSIYLQMNSLKTEDTAVYYCHYVHYASASTVLPAFGMDAWGQGTTVTVSS
VL: DIVMTQSPLSLPVTPGEPASISCQASQELVHMNRNTYLHWYQQKPGQAPRLLIYKVSNRFPGVPDRFSGSGSGTDFTLKISRVEAEDVGVYYCAQGTSVPFTFGQGTKLEIK
B10: H183/L072 VH V95L (antibody, name in Kabat numbering, V domains shown)
VH: QVQLVESGGGLVQPGRSLRLSCAASGFTFSNAWMHWVRQAPGKGLEWVAQIKDKGNAYAAYYAPSVKGRFTISRDDSKNSIYLQMNSLKTEDTAVYYCHYLHYASASTVLPAFGVDAWGQGTTVTVSS
VL: DIVMTQSPLSLPVTPGEPASISCQASQELVHMNRNTYLHWYQQKPGQAPRLLIYKVSNRFPGVPDRFSGSGSGTDFTLKISRVEAEDVGVYYCAQGTSVPFTFGQGTKLEIK
B11: H183/L072 VH V63A (antibody, name in Kabat numbering, V domains shown)
VH: QVQLVESGGGLVQPGRSLRLSCAASGFTFSNAWMHWVRQAPGKGLEWVAQIKDKGNAYAAYYAPSAKGRFTISRDDSKNSIYLQMNSLKTEDTAVYYCHYVHYASASTVLPAFGVDAWGQGTTVTVSS
VL: DIVMTQSPLSLPVTPGEPASISCQASQELVHMNRNTYLHWYQQKPGQAPRLLIYKVSNRFPGVPDRFSGSGSGTDFTLKISRVEAEDVGVYYCAQGTSVPFTFGQGTKLEIK
B12: H183/L072 VH V95M (antibody, name in Kabat numbering, V domains shown)
VH: QVQLVESGGGLVQPGRSLRLSCAASGFTFSNAWMHWVRQAPGKGLEWVAQIKDKGNAYAAYYAPSVKGRFTISRDDSKNSIYLQMNSLKTEDTAVYYCHYMHYASASTVLPAFGVDAWGQGTTVTVSS
VL: DIVMTQSPLSLPVTPGEPASISCQASQELVHMNRNTYLHWYQQKPGQAPRLLIYKVSNRFPGVPDRFSGSGSGTDFTLKISRVEAEDVGVYYCAQGTSVPFTFGQGTKLEIK
B13: H183/L072 VH V63M (antibody, name in Kabat numbering, V domains shown)
VH: QVQLVESGGGLVQPGRSLRLSCAASGFTFSNAWMHWVRQAPGKGLEWVAQIKDKGNAYAAYYAPSMKGRFTISRDDSKNSIYLQMNSLKTEDTAVYYCHYVHYASASTVLPAFGVDAWGQGTTVTVSS
VL: DIVMTQSPLSLPVTPGEPASISCQASQELVHMNRNTYLHWYQQKPGQAPRLLIYKVSNRFPGVPDRFSGSGSGTDFTLKISRVEAEDVGVYYCAQGTSVPFTFGQGTKLEIK
B14: H183/L072 VH V95P (antibody, name in Kabat numbering, V domains shown)
VH: QVQLVESGGGLVQPGRSLRLSCAASGFTFSNAWMHWVRQAPGKGLEWVAQIKDKGNAYAAYYAPSVKGRFTISRDDSKNSIYLQMNSLKTEDTAVYYCHYPHYASASTVLPAFGVDAWGQGTTVTVSS
VL: DIVMTQSPLSLPVTPGEPASISCQASQELVHMNRNTYLHWYQQKPGQAPRLLIYKVSNRFPGVPDRFSGSGSGTDFTLKISRVEAEDVGVYYCAQGTSVPFTFGQGTKLEIK
B15: H183/L072 VH V100iA (antibody, name in Kabat numbering, V domains shown)
VH: QVQLVESGGGLVQPGRSLRLSCAASGFTFSNAWMHWVRQAPGKGLEWVAQIKDKGNAYAAYYAPSVKGRFTISRDDSKNSIYLQMNSLKTEDTAVYYCHYVHYASASTVLPAFGADAWGQGTTVTVSS
VL: DIVMTQSPLSLPVTPGEPASISCQASQELVHMNRNTYLHWYQQKPGQAPRLLIYKVSNRFPGVPDRFSGSGSGTDFTLKISRVEAEDVGVYYCAQGTSVPFTFGQGTKLEIK
B16: H183/L072 VH V100iL (antibody, name in Kabat numbering, V domains shown)
VH: QVQLVESGGGLVQPGRSLRLSCAASGFTFSNAWMHWVRQAPGKGLEWVAQIKDKGNAYAAYYAPSVKGRFTISRDDSKNSIYLQMNSLKTEDTAVYYCHYVHYASASTVLPAFGLDAWGQGTTVTVSS
VL: DIVMTQSPLSLPVTPGEPASISCQASQELVHMNRNTYLHWYQQKPGQAPRLLIYKVSNRFPGVPDRFSGSGSGTDFTLKISRVEAEDVGVYYCAQGTSVPFTFGQGTKLEIK
B17: H183/L072 VH V100iI (antibody, name in Kabat numbering, V domains shown)
VH: QVQLVESGGGLVQPGRSLRLSCAASGFTFSNAWMHWVRQAPGKGLEWVAQIKDKGNAYAAYYAPSVKGRFTISRDDSKNSIYLQMNSLKTEDTAVYYCHYVHYASASTVLPAFGIDAWGQGTTVTVSS
VL: DIVMTQSPLSLPVTPGEPASISCQASQELVHMNRNTYLHWYQQKPGQAPRLLIYKVSNRFPGVPDRFSGSGSGTDFTLKISRVEAEDVGVYYCAQGTSVPFTFGQGTKLEIK
B18: H183/L072 VH V63P (antibody, name in Kabat numbering, V domains shown)
VH: QVQLVESGGGLVQPGRSLRLSCAASGFTFSNAWMHWVRQAPGKGLEWVAQIKDKGNAYAAYYAPSPKGRFTISRDDSKNSIYLQMNSLKTEDTAVYYCHYVHYASASTVLPAFGVDAWGQGTTVTVSS
VL: DIVMTQSPLSLPVTPGEPASISCQASQELVHMNRNTYLHWYQQKPGQAPRLLIYKVSNRFPGVPDRFSGSGSGTDFTLKISRVEAEDVGVYYCAQGTSVPFTFGQGTKLEIK
B19: H183/L072 VH V100cL (antibody, name in Kabat numbering, V domains shown)
VH: QVQLVESGGGLVQPGRSLRLSCAASGFTFSNAWMHWVRQAPGKGLEWVAQIKDKGNAYAAYYAPSVKGRFTISRDDSKNSIYLQMNSLKTEDTAVYYCHYVHYASASTLLPAFGVDAWGQGTTVTVSS
VL: DIVMTQSPLSLPVTPGEPASISCQASQELVHMNRNTYLHWYQQKPGQAPRLLIYKVSNRFPGVPDRFSGSGSGTDFTLKISRVEAEDVGVYYCAQGTSVPFTFGQGTKLEIK
B20: H183/L072 VH V100cA (antibody, name in Kabat numbering, V domains shown)
VH: QVQLVESGGGLVQPGRSLRLSCAASGFTFSNAWMHWVRQAPGKGLEWVAQIKDKGNAYAAYYAPSVKGRFTISRDDSKNSIYLQMNSLKTEDTAVYYCHYVHYASASTALPAFGVDAWGQGTTVTVSS
VL: DIVMTQSPLSLPVTPGEPASISCQASQELVHMNRNTYLHWYQQKPGQAPRLLIYKVSNRFPGVPDRFSGSGSGTDFTLKISRVEAEDVGVYYCAQGTSVPFTFGQGTKLEIK

The target in the test is T1, Human CD137 ECD (human).
T1 construct: also called 4-1BB
T1 sequence (chain, as listed by the source limits assumed): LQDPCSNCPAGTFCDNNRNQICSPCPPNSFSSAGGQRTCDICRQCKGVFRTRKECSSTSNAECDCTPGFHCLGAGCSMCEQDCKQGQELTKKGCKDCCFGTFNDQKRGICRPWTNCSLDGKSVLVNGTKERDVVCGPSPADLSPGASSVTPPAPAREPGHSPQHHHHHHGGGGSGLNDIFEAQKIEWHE
The test can be described thus: single mutant vs template dBBDu183H.
Take B1: the “fold change of affinity” value was 0.1 fold.

For B2, the “fold change of affinity” value was 1.1 fold.

In the case of B3, the “fold change of affinity” value worked out at 0 fold.

Consider B4, for which the “fold change of affinity” value worked out at 0.3 fold. On to B5, for which the “fold change of affinity” value is 2.5 fold.

As for B6, the “fold change of affinity” value was 0.5 fold. The same measure for B7: 1.3 fold; for B8: 0.9 fold; for B9: 0 fold. As for B10, the “fold change of affinity” value was found to be 0.2 fold. The same measure for B11: 0.9 fold. Take B12: the “fold change of affinity” value stood at 0 fold. Under B13 stands 0.8 fold; under B14, 0 fold; under B15, 0 fold.

B16: the “fold change of affinity” value came out at 0.1 fold. For B17, the “fold change of affinity” value was 1.1 fold. In the case of B18, the “fold change of affinity” value came out at 1 fold. The same measure for B19: 3.3 fold; for B20: 0.4 fold.

(Values after patent US20210388087A1 (Chugai, published 2021).)
